Our source for the average size of the aggregates (TIRF microscopy, Neuro2a cells) values is patent US20170226169A1.

In the test the target is 109QmHtt (UniProt P42858). Nature of the test: cell-based or functional assay.
109QmHtt, sequence (P42858 other isoform, or with tags, fused parts or gaps): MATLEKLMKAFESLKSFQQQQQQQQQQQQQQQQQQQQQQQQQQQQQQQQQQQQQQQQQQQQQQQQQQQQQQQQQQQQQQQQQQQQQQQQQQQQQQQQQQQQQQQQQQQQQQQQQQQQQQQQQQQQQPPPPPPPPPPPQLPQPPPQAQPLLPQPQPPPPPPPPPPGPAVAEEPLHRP

On to RRRRRRRRWDQQQQQQQQQQQQQQQ (C-terminal amide (CONH2)) [8R15Q], for which the average size of the aggregates (TIRF microscopy, Neuro2a cells) was determined as 0.2 µm^2.

The molecule RRRRRRRRWDQQQQQQQQQQ (C-terminal amide (CONH2)) [8R10Q] displayed an average size of the aggregates (TIRF microscopy, Neuro2a cells) of 0.3 µm^2.

RQQRRQQDQRQWQRQRQQR (C-terminal amide (CONH2)) [s8R10Q]: the average size of the aggregates (TIRF microscopy, Neuro2a cells) was found to be 1.7 µm^2.

In turn, RRRRRRRRWD (C-terminal amide (CONH2)) [8R] gave an average size of the aggregates (TIRF microscopy, Neuro2a cells) of 3.3 µm^2.
